The values below come from publication PMC7069805.

This assay addresses MD39 stabilized gp140 HIV Env trimer (HIV). Kind of assay: SEC-MALS. Background: SEC sorts molecules by how far they enter the pores of the column.

In turn, “MD39 stabilized gp140 HIV Env trimer (domain or fragment)” displayed a stoichiometry N of 3.

What is called stoichiometry N is the number of molecules, sites or subunits per partner or assembly.
